Five molecules from publication PMC12699829, “Development of a glutamine-responsive MRI contrast agent” (Chemical Science, 2025) can be followed below.

A short description of the data set: T1 and T2 relaxivity measurements at 9.4 T (400 MHz NMR). The conditions noted are these: for Holo/Apo % r2 Change: 37 °C; for r2 (Holo) / r2 (Apo): PBS buffer pH 7.4, 37 °C; for r2 (Holo): with Gln; for r2 (Apo): without Gln. Type of data set: physicochemical. Here is the method:
The effectiveness of a contrast agent depends on its “relaxivity”, which is measured in units of mM^−1 s^−1, and quantifies how much a given concentration of the contrast agent improves water relaxation rates. T1 and T2 relaxivities are denoted r1 and r2, respectively, and are calculated according to eqn (1):1 [drawing 1] Here, Ti and Ti^0 are the relaxation times in the presence and absence of the contrast agent, respectively, and [C] is the concentration of the contrast agent. […] The relaxivity of a contrast agent depends not only on the properties of the molecule but also on the strength of the magnetic field used for the measurement. Whereas early MRI instruments were relatively weak (<1 T), the modern clinical standard has risen to 1–3 T, wth an increasing number of even more powerful instruments (>3 T) in recent years. Thus, we performed relaxivity experiments at both the most clinically relevant field strengths 1.4 T and at the more cutting-edge field strength of 9.4 T.
10% D 2O (assay buffer). S tock solutions of swArM in assay buffer was prepared at1.11, 0.83, 0.56, and 0.28 mM. Apo- and holo-swArM samples were prepared from the same stock by adding either 20 μL assay buffer or 20 μL 0. 1 M Gln in assay buffer, to 180 μL of protein solution, respectively. Final protein concentrations were verified using the molar extinction coefficient ε28 0 = 25.9 mM -1 cm -1.
B. NM R M easu r ements . Relaxivities of all variants were determined at 37 °C from spectra taken at 9.4 T (400 mHz) using a Varian Inova 400 -MHz NMR spectrometer equipped with a Nalorac, 5 mm, DR probe. Select variants were also investigated at 32°C at 1.4 T (60 mHz) using a Nanalysis NMReady60 Pro instrument. Measurements were typically performed on 4 diffe rent concentrations of contrast agent and on the same buffer with no contrast agent. Temperature- dependent relaxivity measurements were performed using a Varian Inova 500-MHz NMR spectrometer, equipped with a Vari an, 5-mm, TR PFG probe with inverse proton detection. Temperature- dependent relaxivity was determined using either two concen trations of contrast agent ( 0. 5 and 1. 0 mM ) or t hree (0. 3, 0. 6, and 0.9 mM) . The temperature was calibrated using the 1H NMR signal of ethylene glycol.20 T1 measurements were performed using the inversion recovery method21 and T2 measurements were performed using the Carr–Purcell–Meiboom –G ill (CPMG) p ulse […]
Six or more pulse delay times (τ) were chosen to ensure coverage of the Ti under observation, and the delay between pulse sequences was set to at least 5-times T1.
Optimized 90° and 180° pulse widths were determined on the day of the experiment, and typically spanned 16‒2 0 μs (90° pulse width) and 32‒4 0 μs (180° pulse width). The delay in the CPMG pulse sequence was set to at least 50 times the 180° pulse width to allow at least four echo loops .
C. A n al ysi s . To determine Ti, data were analyzed via MestReNova software. For each spectrum, an integration was performed over the water peak, and the values obtained (dependent variable) were plotted against τ (independent variable). […]
then fit to a monoexponential decay according to Eq. 1. From these analyses, we obtain Ti for each sample concentration and type.
The quantity described by Eq. 2, where Ti at zero added sample is T0, was then plotted against the swArM concentration and a linear regression model was applied. The slope of this line gives the contrast agent relaxivity ri.

The mark [1] stands for this setting: free contrast agent control, PBS pH 7.4, 37 °C.

With `O=C([O-])CN1CCN(CC(=O)[O-])CCN(CC(=O)[O-])CCN(CC(=O)[O-])CC1.[Gd+3]` [Gd(DOTA), reference compound], under “free contrast agent control”, the “+Gln/−Gln % r1 Change” value was determined as 0 ± 3% and the “+Gln/−Gln % r2 Change” value is given as 1 ± 6%. Also, under setting [1], the “r1 (+Gln)” value amounted to 2.80 ± 0.07 mM⁻¹ s⁻¹, the “r1 (−Gln)” value came out at 2.82 ± 0.04 mM⁻¹ s⁻¹, the “r2 (+Gln)” value is 3.6 ± 0.2 mM⁻¹ s⁻¹ and the “r2 (−Gln)” value stood at 3.5 ± 0.1 mM⁻¹ s⁻¹.

B1: [Dy(DOTA-malN)]72-G119K: swArM: Dy(DOTA-mal^N) on T72C/G119K double variant of GlnBP (conjugate, UniProt P0AEQ3 23-248, looked up, variant T72C G119K)
Glutamine-binding periplasmic …: ADKKLVVATDTAFVPFEFKQGDKYVGFDVDLWAAIAKELKLDYELKPMDFSGIIPALQTKNVDLALAGITICDERKKAIDFSDGYYKSGLLVMVKANNNDVKSVKDLDGKVVAVKSGTKSVDYAKANIKTKDLRQFPNIDNAYMELGTNRADAVLHDTPNILYFIKTAGNGQFKAVGDSLEAQQYGIAFPKGSDELRDKVNGALKTLRENGTYNEIYKKWFGTEPK
modifications: Dy(DOTA-malN) at Cys72
notes: swArM: Dy(DOTA-mal^N) on T72C/G119K double variant of GlnBP
As for B1, the “Holo/Apo % r2 Change” value is recorded as 15 ± 4%, the “r2 (Holo)” value turned out to be 8.5 ± 0.2 mM⁻¹ s⁻¹ and the “r2 (Apo)” value was determined as 7.39 ± 0.07 mM⁻¹ s⁻¹.

B2: [Dy(DOTA-mal^N)]72-A126Y: swArM: Dy(DOTA-mal^N) on T72C/A126Y double variant of GlnBP (conjugate, UniProt P0AEQ3 23-248, looked up, variant T72C A126Y)
Glutamine-binding periplasmic …: ADKKLVVATDTAFVPFEFKQGDKYVGFDVDLWAAIAKELKLDYELKPMDFSGIIPALQTKNVDLALAGITICDERKKAIDFSDGYYKSGLLVMVKANNNDVKSVKDLDGKVVAVKSGTGSVDYAKYNIKTKDLRQFPNIDNAYMELGTNRADAVLHDTPNILYFIKTAGNGQFKAVGDSLEAQQYGIAFPKGSDELRDKVNGALKTLRENGTYNEIYKKWFGTEPK
modifications: Dy(DOTA-malN) at Cys72
notes: swArM: Dy(DOTA-mal^N) on T72C/A126Y double variant of GlnBP
For the molecule B2, the “Holo/Apo % r2 Change” value is on record as 58 ± 6%, the “r2 (Holo)” value is 10.8 ± 0.2 mM⁻¹ s⁻¹ and the “r2 (Apo)” value was 6.8 ± 0.2 mM⁻¹ s⁻¹.

B3: [Dy(DOTA-malN)]72-A126D: swArM: Dy(DOTA-mal^N) on T72C/A126D double variant of GlnBP (conjugate, UniProt P0AEQ3 23-248, looked up, variant T72C A126D)
Glutamine-binding periplasmic …: ADKKLVVATDTAFVPFEFKQGDKYVGFDVDLWAAIAKELKLDYELKPMDFSGIIPALQTKNVDLALAGITICDERKKAIDFSDGYYKSGLLVMVKANNNDVKSVKDLDGKVVAVKSGTGSVDYAKDNIKTKDLRQFPNIDNAYMELGTNRADAVLHDTPNILYFIKTAGNGQFKAVGDSLEAQQYGIAFPKGSDELRDKVNGALKTLRENGTYNEIYKKWFGTEPK
modifications: Dy(DOTA-malN) at Cys72
notes: swArM: Dy(DOTA-mal^N) on T72C/A126D double variant of GlnBP
In the case of B3, the “Holo/Apo % r2 Change” value is 23 ± 5%, the “r2 (Holo)” value is 11.7 ± 0.09 mM⁻¹ s⁻¹ and the “r2 (Apo)” value was 9.5 ± 0.3 mM⁻¹ s⁻¹.

B4: [Dy(DOTA-malC)]72-A126Y: swArM: Dy(DOTA-mal^C), linker on carbon of carboxylate arm, on T72C/A126Y GlnBP (conjugate, UniProt P0AEQ3 23-248, looked up, variant T72C A126Y)
Glutamine-binding periplasmic …: ADKKLVVATDTAFVPFEFKQGDKYVGFDVDLWAAIAKELKLDYELKPMDFSGIIPALQTKNVDLALAGITICDERKKAIDFSDGYYKSGLLVMVKANNNDVKSVKDLDGKVVAVKSGTGSVDYAKYNIKTKDLRQFPNIDNAYMELGTNRADAVLHDTPNILYFIKTAGNGQFKAVGDSLEAQQYGIAFPKGSDELRDKVNGALKTLRENGTYNEIYKKWFGTEPK
modifications: Dy(DOTA-malC) at Cys72
notes: swArM: Dy(DOTA-mal^C), linker on carbon of carboxylate arm, on T72C/A126Y GlnBP
Consider B4, for which the “r2 (Holo)” value came out at 9.6 ± 0.2 mM⁻¹ s⁻¹ and the “r2 (Apo)” value turned out to be 9.7 ± 0.1 mM⁻¹ s⁻¹.
